According to patent US9809627B2, “Cyclized transthyretin peptide and methods of use therefor” (Wisconsin Alumni Research Foundation, priority 2014, dated 2017):
Where no end group is shown, it is not given here. [ ]: non-standard residue; d: D form.

What was measured:
Aβ (1-40) [1] = target: T1, Aβ (1-40) (Homo sapiens, UniProt P05067); experiment: Transmission electron microscopy of Aβ aggregates; type: biochemical; settings: 48 h at 37° C., 28 μM Aβ, 2.8 μM peptide
T1 construct: Aβ (1-40) was purchased from Anaspec, Inc. (Fremont, Calif.) as lyophilized powder; purchased Anaspec, Inc. (Fremont, Calif.)
Procedure: (§1) Aβ (1-40) was purchased from Anaspec, Inc. (Fremont, Calif.) as lyophilized powder. For dynamic light scattering, ThT fluorescence assay, TEM, NTA measurement and filtration/sedimentation assay, Aβ was dissolved in 50% ACN, re-lyophilized, and reconstituted in 8M urea at 12 mg/mL. Aβ stock was then aliquoted, snap-frozen in ethanol with dry ice, and stored at −80° C. For PICUP and proteolytic fragmentation analysis, lyophilized Aβ was dissolved in prechilled hexafluoroisopropanol (HFIP, Acros Organics, Geel, Belgium), aliquoted, dried and stored at −20° C. as previously described (Cho et al., 2014). Aβ sample was prepared right before use by dissolving dried peptides in 50 mM NaOH and diluting into phosphate-buffered saline (PBSA) (10 mM Na2HPO4/NaH2PO4, 150 mM NaCL and 0.02% NaN3 (pH 7.4)) to 30 μM as previously described (Cho et al., 2014).
Aβ alone (28 μM) or with peptides (G16 or CG3 at 2.8 μM) were prepared in PBSA and incubated for 48 hr at 37° C. A drop of sample was placed on a pioloform-coated grid and stained with methylamine tungstate stain. Images were taken with a Philips CM120 scanning transmission electron microscope (FEI Corp., Eindhoven, The Netherlands).

Aβ (1-40) [2] = target: T1, Aβ (1-40); experiment: Dynamic light scattering of Aβ aggregate growth; type: biochemical; settings: 140 μM Aβ
Procedure: as §1
Aβ stock in 8M urea prepared as stated above was thawed and sonicated for 2 min before being diluted into PBSA. Aβ alone (140 μM) or mixed with peptides (14 μM) was filtered through […] filter directly into a light scattering cuvette and placed into a bath of the index-matching solvent decahydronaphthalene with temperature controlled to 37° C. Light scattering data were collected using a Brookhaven BI-200SM system (Brookhaven Instruments Corp., Holtsville, N.Y.) and an Innova 90C-5 argon laser (Coherent, Santa Clara, Calif.) operating at 488 nm and 150 mW. The average scattering intensity at 90° was measured over 10 hr and data were normalized to the total mass concentration. The z-averaged hydrodynamic diameter was determined from the autocorrelation function using the method of cummulants.

[3] = Peptide self-aggregation by light scattering; type: physicochemical; settings: 80 μM, 37° C., after 1 hr of incubation
Procedure: To further probe for self-aggregation, G16, LG3, and CG3 were incubated at 80 μM at 37° C. and analyzed by light scattering.

SKVVT^DPPRYTIAALLSPYSYSQ [CG3] (chain 1 SKVVT[dP]PRYTIAALLSPYSYSQ; chain 2 SKVVT[dP]PRYTIAALLSPYSYSQ; also: head-to-tail to a chain's N/C-terminus) [cyclic 22-mer of TTR residues 104-123 grafted onto DPro-Pro template]
morphology of Aβ aggregates by TEM (Aβ (1-40) [1]): strikingly lower density of aggregates | effect on Aβ aggregation (hydrodynamic diameter, total scattered intensity) (Aβ (1-40) [2]; 14 μM peptide): increased the size of aggregates of Aβ | intensity of scattered light of Aβ-peptide mixture (Aβ (1-40) [2]; 14 μM peptide): enhanced the intensity of scattered light similarly | mean hydrodynamic size of Aβ-peptide mixture (Aβ (1-40) [2]; after 5 hr, 10:1 molar excess of Aβ, 37° C.): 1000 nm | light scattering of peptide alone [3]: scattered light above background | scattering intensity relative to G16 [3]: about 5 times
